# ± gives the standard deviation of the averaged measurements.
# Test system: ATP
# Test: switch fluorescence ratio, 500 uM ATP over buffer (Cy3 cluster intensity, sum of 5 cycles each) (fold (ratio)); higher = stronger signal-on switching upon ATP binding; sequences stand for … in TCGTCGGCAGCGTCAGATGTGTATAAGAGACAGTTTTTTTTTTTTTTTTTTTTTTTTT…TC
# Settings: aptamer strand: ATP DNA aptamer (quencher-CACCTGGGGGAGTATTGCGGAGGAAGG + anchor), 100 nM annealed; ATP concentration: 500 uM
# Outline: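 Clusters with intensities outside 100-1000 RFU were excluded. The remaining Cy3-labelled switching-strand clusters on a modified Illumina MiSeq flow-cell had been annealed to 100 nM quencher-labelled ATP aptamer and imaged in selection buffer, then after 15 min with 500 uM ATP at 22 °C, for five cycles separated by NaOH stripping and re-annealing. The fluorescence ratio, averaged per switch-domain sequence, is each cluster's summed target-cycle Cy3 intensity over its summed buffer-cycle Cy3 intensity.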
# 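Further: ATP exposure 15 min at 22 °C before imaging.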
row,Sequence,switch fluorescence ratio
1,ATCTTCGGGC,0.9869 ± 0.0065
2,GCGGGTATGG,1 ± 0.021
3,GCTTGCGGGG,0.9774 ± 0.0015
4,TTTGTTTCCA,0.962 ± 0.012
5,TATATTGTAA,1.01 ± 0.013
6,TAAGGAGAGG,1.01 ± 0.027
7,TGGACTATTA,1.015 ± 0.01
8,TTTATTATTG,0.989 ± 0.035
9,TATTCTCTTT,1.04 ± 0.081
10,TTATCGCTGC,1.06 ± 0.11
11,AGCCTATTGT,0.972 ± 0.035
12,AGATTTGTGT,0.959 ± 0.024
13,CGGAGTTGGG,0.9863 ± 0.0044
14,CGGTTTTGTA,0.971 ± 0.028
15,TTGGGAAGGA,1.02 ± 0.042
16,GGGATAAGCC,1 ± 0.012
17,GGAGATGGGG,1.02 ± 0.018
18,AAGGGCTATT,1 ± 0.029
19,TCCATCGGGG,1.01 ± 0.013
20,GATCTGGCTT,0.976 ± 0.031
21,TTGACGTGTT,1.03 ± 0.047
22,TTCCGTTGGG,1.028 ± 0.0032
23,GGGAATGTTC,1.01 ± 0.014
24,GGTGGGAATG,0.99 ± 0.023
25,GTTACAAGGG,0.9883 ± 0.0092

row,Sequence,switch fluorescence ratio
1,CGGAGGTGTA,1.4 ± 0.67
2,CAATAAGAGC,1.09 ± 0.029
3,CTGGCCAAGT,0.999 ± 0.02
4,TCGTGAACCC,1.01 ± 0.023
5,TTCGTTCCGT,1.03 ± 0.019
6,GTCGGGGTAC,0.997 ± 0.034
7,GCCGGACATT,0.998 ± 0.02
8,GGTTCTGTCC,1.03 ± 0.021
9,CTGAAGCTGT,2.64 ± 1.3
10,AGGTTCCACG,0.996 ± 0.03
11,TAGCGGTCTC,1.03 ± 0.032
12,GATTCTGGCA,0.9715 ± 0.0057
13,AAAACAAAAT,1.05 ± 0.026
14,GGGTTATGAA,0.994 ± 0.022
15,TGGGGAGAAG,0.994 ± 0.013
16,GTTAAGGATG,1.012 ± 0.0071
17,ATTAAATGAG,1.01 ± 0.022
18,AGCGCAGTTT,0.999 ± 0.021
19,GGGGAACAGT,0.979 ± 0.043
20,AAAGGCCTG,1.01 ± 0.017
21,CAGAAGGGGA,1.09 ± 0.079
22,ATGAACAGGG,1.01 ± 0.05
23,TTAGGGGCAG,0.981 ± 0.034
24,GAGGCAGAAT,1.03 ± 0.012
25,TTGTTTTCCA,0.987 ± 0.018

row,Sequence,switch fluorescence ratio
1,TATCGTATTG,0.979 ± 0.011
2,AAGGGTGGGT,0.9876 ± 0.0045
3,ACTTTTTTTA,1.022 ± 0.01
4,TTAATTGAGG,0.993 ± 0.044
5,TAGCAGTCAA,1.02 ± 0.02
6,CTGAAGGGAT,1.05 ± 0.023
7,TTATTTAGAC,1 ± 0.024
8,CATCTAGTGC,1.045 ± 0.0031
9,GGGATAGGGG,0.996 ± 0.024
10,ATATGAAGGT,0.9893 ± 0.0047
11,TTTCATTATT,1.02 ± 0.02
12,ATGATTTAGG,0.9998 ± 0.0095
13,CGTAGGGGCT,1 ± 0.011
14,ACAAGTTTAA,0.997 ± 0.025
15,ATATTACTGC,1.07 ± 0.02
16,TTCGTTCTTT,1.005 ± 0.0043
17,CGCGATCGCG,0.994 ± 0.055
18,GGGGGATTAA,1 ± 0.017
19,TTTTATGATT,0.997 ± 0.04
20,GAGGGGGGGA,1 ± 0.044
21,TAGAGGGGCA,0.979 ± 0.011
22,TGTAGGAGTG,1.25 ± 0.36
23,TGTGTTAGTA,0.9602 ± 0.0053
24,AATGATTAGT,0.998 ± 0.032
25,TATTTTTTTG,1.01 ± 0.018

row,Sequence,switch fluorescence ratio
1,GGTGGGGGGT,0.989 ± 0.029
2,AGAAGTGAGC,0.978 ± 0.038
3,CGTAATGCCT,1.03 ± 0.098
4,TGATGGCGGG,0.9917 ± 0.0042
5,AGGTACGATT,1.02 ± 0.034
6,AATGTCGGGC,1.02 ± 0.022
7,TTATTCGGGA,1.02 ± 0.031
8,ATTCTGTTAG,0.993 ± 0.0092
9,TTCAATGGGC,0.998 ± 0.064
10,CGTGTGGGGG,1.02 ± 0.031
11,ACCTACAAGG,0.99429 ± 0.00094
12,GCTATTGGGT,0.95 ± 0.022
13,ACTATCCAGG,2.226 ± 0.0049
14,ACATTTATCT,1.02 ± 0.02
15,AAAGCTGGGT,1 ± 0.026
16,TGATTGCTAT,1.01 ± 0.039
17,GTGAGGGAGT,1.008 ± 0.006
18,GAAAGGTAAG,0.9934 ± 0.0036
19,GAAATGAAGG,0.973 ± 0.016
20,GGGGATGTCT,1.03 ± 0.03
21,GGGCCCGCGT,0.98 ± 0.011
22,TGGGGCAACG,0.979 ± 0.034
23,GAATTATCAT,0.968 ± 0.015
24,TTTTAGTCTT,1.04 ± 0.078
25,GGGAATCGGT,0.978 ± 0.058
